Sequences and labels used below:
T1: cynoCD40(1-193) (cynomolgus monkey, UniProt P25942 21-193 (human entry))
T1 construct: also called soluble cynomolgus monkey CD40
T1 chain: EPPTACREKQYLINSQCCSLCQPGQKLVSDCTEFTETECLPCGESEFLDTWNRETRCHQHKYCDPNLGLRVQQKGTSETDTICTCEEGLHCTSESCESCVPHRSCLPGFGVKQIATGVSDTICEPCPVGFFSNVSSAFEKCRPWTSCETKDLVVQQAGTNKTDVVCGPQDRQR

T2: cynoMSLN(296-598) (cynomolgus monkey)
T2 chain: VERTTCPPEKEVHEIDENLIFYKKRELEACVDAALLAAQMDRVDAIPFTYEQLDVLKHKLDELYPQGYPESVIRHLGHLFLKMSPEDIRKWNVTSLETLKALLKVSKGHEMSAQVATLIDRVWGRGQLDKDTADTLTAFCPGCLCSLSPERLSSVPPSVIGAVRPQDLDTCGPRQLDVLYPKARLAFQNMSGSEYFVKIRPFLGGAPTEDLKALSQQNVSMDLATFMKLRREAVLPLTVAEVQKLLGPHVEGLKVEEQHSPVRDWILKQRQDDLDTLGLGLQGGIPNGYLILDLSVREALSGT

B1: 6051-2 (bispecific antibody)
heavy: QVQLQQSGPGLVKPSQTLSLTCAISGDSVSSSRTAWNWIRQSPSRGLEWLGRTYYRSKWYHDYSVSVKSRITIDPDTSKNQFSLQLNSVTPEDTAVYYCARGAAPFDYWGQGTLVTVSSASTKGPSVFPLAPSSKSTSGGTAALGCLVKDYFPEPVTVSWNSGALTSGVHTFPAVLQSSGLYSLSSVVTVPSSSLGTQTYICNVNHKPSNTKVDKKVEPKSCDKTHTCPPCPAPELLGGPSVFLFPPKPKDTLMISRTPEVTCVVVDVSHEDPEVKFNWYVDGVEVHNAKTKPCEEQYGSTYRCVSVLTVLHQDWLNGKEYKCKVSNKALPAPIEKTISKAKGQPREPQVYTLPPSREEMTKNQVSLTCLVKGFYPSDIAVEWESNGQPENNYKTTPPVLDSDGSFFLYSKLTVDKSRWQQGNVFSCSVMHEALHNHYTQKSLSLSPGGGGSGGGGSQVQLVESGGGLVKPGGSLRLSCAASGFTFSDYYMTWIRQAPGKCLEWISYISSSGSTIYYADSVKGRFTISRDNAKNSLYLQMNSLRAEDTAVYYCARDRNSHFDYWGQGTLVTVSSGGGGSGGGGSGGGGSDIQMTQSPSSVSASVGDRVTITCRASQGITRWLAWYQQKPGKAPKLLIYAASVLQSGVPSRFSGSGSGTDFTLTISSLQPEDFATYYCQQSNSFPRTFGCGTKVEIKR
light: EIVLTQSPGTLSLSPGERATLSCRASQSVSSNYLAWYQQKPGQAPRALIYAASNRAAGISDRFSGSGSGTDFTLTISRLEPEDFAVYFCQQYGSSPLTFGGGTKVEIKRTVAAPSVFIFPPSDEQLKSGTASVVCLLNNFYPREAKVQWKVDNALQSGNSQESVTEQDSKDSTYSLSSTLTLSKADYEKHKVYACEVTHQGLSSPVTKSFNRGEC
notes: IgG-scFv: IgG (CD40) 36F3, scFv (MSLN) 4H6
B2: 6043-2 (bispecific antibody)
heavy: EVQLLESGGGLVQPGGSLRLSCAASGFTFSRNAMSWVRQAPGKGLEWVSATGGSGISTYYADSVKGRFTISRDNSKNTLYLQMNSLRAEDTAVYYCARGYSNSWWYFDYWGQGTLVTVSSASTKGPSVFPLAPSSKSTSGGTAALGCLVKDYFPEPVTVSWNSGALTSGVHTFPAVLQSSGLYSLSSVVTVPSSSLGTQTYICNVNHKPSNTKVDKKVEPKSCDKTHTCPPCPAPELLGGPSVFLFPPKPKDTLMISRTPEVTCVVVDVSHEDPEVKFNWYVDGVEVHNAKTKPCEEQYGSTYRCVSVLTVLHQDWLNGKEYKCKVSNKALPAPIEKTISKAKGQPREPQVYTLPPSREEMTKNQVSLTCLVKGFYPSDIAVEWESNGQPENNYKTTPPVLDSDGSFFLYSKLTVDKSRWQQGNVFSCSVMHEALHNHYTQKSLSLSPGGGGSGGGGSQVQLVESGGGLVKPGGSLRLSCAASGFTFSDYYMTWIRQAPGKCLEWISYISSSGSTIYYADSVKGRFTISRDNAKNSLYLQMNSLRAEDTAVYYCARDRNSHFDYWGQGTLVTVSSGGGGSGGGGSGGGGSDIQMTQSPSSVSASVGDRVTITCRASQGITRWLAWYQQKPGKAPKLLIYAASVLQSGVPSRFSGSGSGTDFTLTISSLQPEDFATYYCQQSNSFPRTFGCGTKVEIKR
light: QSALTQPASVSGSPGQSITISCTGTSSDVGNYNLVSWYQQHPGKAPKLMIFEVNQRPSGVSNRFSGSKSGTTASLTISGLQAADEADYFCCSYTTSSTYVIFGGGTKLTVLGQPKAAPSVTLFPPSSEELQANKATLVCLISDFYPGAVTVAWKADSSPVKAGVETTTPSKQSNNKYAASSYLSLTPEQWKSHRSYSCQVTHEGSTVEKTVAPTECS
notes: IgG-scFv: IgG (CD40) 30A12, scFv (MSLN) 4H6
B3: 6055-2 (bispecific antibody)
heavy: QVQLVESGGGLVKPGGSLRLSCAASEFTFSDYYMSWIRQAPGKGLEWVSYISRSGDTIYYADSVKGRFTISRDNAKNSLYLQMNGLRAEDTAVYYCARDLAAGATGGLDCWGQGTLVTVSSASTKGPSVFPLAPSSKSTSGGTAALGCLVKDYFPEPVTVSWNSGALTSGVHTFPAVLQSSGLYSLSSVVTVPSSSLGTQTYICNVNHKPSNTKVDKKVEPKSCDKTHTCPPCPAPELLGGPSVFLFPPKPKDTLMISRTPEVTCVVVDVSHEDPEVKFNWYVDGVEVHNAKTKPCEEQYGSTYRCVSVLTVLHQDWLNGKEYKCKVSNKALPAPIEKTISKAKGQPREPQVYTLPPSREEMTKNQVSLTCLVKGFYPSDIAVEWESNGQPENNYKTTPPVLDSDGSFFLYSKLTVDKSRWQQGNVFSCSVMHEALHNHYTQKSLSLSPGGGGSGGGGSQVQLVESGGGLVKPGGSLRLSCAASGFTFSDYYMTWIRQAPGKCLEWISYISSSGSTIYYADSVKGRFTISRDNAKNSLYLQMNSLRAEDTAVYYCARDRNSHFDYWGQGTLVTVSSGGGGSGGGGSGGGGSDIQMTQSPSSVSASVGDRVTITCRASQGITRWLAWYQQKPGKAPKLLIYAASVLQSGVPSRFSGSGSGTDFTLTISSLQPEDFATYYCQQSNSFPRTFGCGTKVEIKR
light: SYELTQPPSVSVSPGQTASITCSGERLGNKYICWYQQKPGQSPVLVIYQDFKRPSGIPERFSGSNSGITATLTISGTQAMDEADYYCQAWDSRTVVFGGGTKLTVLGQPKAAPSVTLFPPSSEELQANKATLVCLISDFYPGAVTVAWKADSSPVKAGVETTTPSKQSNNKYAASSYLSLTPEQWKSHRSYSCQVTHEGSTVEKTVAPTECS
notes: IgG-scFv: IgG (CD40) 37A6, scFv (MSLN) 4H6
B4: 6054-2 (bispecific antibody)
heavy: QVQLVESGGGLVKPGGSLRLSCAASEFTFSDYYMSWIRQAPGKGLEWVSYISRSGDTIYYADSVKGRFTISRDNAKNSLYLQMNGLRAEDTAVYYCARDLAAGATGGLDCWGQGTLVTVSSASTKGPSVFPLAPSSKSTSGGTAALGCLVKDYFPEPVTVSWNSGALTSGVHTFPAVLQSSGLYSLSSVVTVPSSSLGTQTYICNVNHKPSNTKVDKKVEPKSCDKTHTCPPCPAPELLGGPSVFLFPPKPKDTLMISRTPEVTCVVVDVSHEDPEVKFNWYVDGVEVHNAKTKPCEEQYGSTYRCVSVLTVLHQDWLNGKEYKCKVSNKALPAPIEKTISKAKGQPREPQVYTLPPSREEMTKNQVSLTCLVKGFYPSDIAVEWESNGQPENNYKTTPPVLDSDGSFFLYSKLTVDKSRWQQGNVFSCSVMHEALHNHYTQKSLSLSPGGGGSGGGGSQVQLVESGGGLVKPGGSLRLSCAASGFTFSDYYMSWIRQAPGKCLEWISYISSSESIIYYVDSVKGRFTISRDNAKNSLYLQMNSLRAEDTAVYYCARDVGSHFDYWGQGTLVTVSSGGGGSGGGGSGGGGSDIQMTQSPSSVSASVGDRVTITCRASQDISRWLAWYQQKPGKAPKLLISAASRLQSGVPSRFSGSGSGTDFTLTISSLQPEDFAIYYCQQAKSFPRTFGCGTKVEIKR
light: B3 light
notes: IgG-scFv: IgG (CD40) 37A6, scFv (MSLN) 6F4

One may read the Kd as the constant that tells how readily two partners part at equilibrium. Broadly, the koff is a measure of how fast the partners let go of each other. Read a low koff as slow dissociation. As usually defined, the kon is the rate constant with which the complex forms. Higher therefore signals fast association.

In the first assay the target is T3, huMSLN(296-598) (human, UniProt Q13421 296-598).
T3 construct: also called soluble human mesothelin
T3 sequence (Q13421 other isoform, or with tags, fused parts or gaps): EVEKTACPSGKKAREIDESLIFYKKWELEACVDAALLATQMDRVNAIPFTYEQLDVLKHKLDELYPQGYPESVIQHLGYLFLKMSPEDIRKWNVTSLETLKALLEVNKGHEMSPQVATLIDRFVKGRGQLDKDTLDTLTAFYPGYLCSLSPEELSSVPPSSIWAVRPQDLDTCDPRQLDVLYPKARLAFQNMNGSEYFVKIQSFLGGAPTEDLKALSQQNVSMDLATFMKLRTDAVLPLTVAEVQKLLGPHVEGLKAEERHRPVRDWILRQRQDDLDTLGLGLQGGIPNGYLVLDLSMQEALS
The experiment in a line: Octet. How it is done: (§1) A panel of mesothelin×CD40 bispecific antibodies were generated in the IgG-scFv format (Table 13) and evaluated for binding to soluble forms of human and cynomolgus monkey CD40 and human and cynomolgus monkey mesothelin using the Octet assay (Table 14). Association rate (Kon), disassociation rate (Kdis), and equilibrium binding constant (KD) were calculated. […] These bispecific antibodies were next evaluated for their ability to induce mesothelin-dependent activation of human B cells. CHO cells expressing human mesothelin were seeded into a 96 well plate. The next day varying concentrations of the mesothelin×CD40 IgG-scFv antibodies were added to the wells along with purified human B cells and the plates were incubated for an additional 48 hours. Upregulation of CD86, a marker of CD40-mediated B cell activation, was quantified on B cells by flow cytometry.
In the case of B1, the Kd is 0.2 nM, the koff is 0.000135 s⁻¹ and the kon was determined as 599000 M⁻¹ s⁻¹.

B2 came in with a dissociation constant Kd of 0.1 nM, a koff of 3.87e-05 s⁻¹ and a kon of 444000 M⁻¹ s⁻¹.

As to B3, binding was characterised by a dissociation constant (Kd) of 0.4 nM, the koff turned out to be 0.000211 s⁻¹ and the kon was 552000 M⁻¹ s⁻¹.

Turning to B4, binding was put at a Kd of 1.3 nM, the koff came out at 0.000462 s⁻¹ and the kon is 367000 M⁻¹ s⁻¹.

The target in the next assay is T1, cynoCD40(1-193). Description: Octet. How it is done:
as §1
In turn, B1 registered a Kd of 4.7 nM, a koff of 0.000466 s⁻¹ and a kon of 100000 M⁻¹ s⁻¹.

Turning to B2, the Kd stood at 0.9 nM, the koff came to 0.000407 s⁻¹ and the kon was 422000 M⁻¹ s⁻¹.

In turn, B3 registered a Kd of 0.8 nM, a koff of 0.00057 s⁻¹ and a kon of 745000 M⁻¹ s⁻¹.

B4 returned a Kd of 1.4 nM, a koff of 0.0004 s⁻¹ and a kon of 277000 M⁻¹ s⁻¹.

The target in the next assay is T2, cynoMSLN(296-598). Description: Octet. How it is done: as §1
On the technique in general: Biolayer interferometry detects binding as a change in optical thickness at a sensor tip.
B1 registered a Kd of 5.5 nM, an off-rate constant (koff) of 0.00105 s⁻¹ and a kon of 191000 M⁻¹ s⁻¹.

B2 showed a Kd of 4.3 nM, a koff of 0.0012 s⁻¹ and a kon of 276000 M⁻¹ s⁻¹.

Regarding B3, the affinity, expressed as Kd, was 6.1 nM; the koff was found to be 0.00109 s⁻¹; the kon amounted to 179000 M⁻¹ s⁻¹.

For the molecule B4, binding was put at a Kd of 17 nM, the koff was 0.00578 s⁻¹ and the kon came to 336000 M⁻¹ s⁻¹.

A further assay deals with T4, huCD40(1-193) (human, UniProt P25942 21-193).
T4 construct: also called soluble human CD40
The experiment in a line: Octet. How it is done: as §1
Turning to B1, the Kd was found to be 3.5 nM, the koff was determined as 0.000431 s⁻¹ and the kon came to 124000 M⁻¹ s⁻¹.

B2 registered a Kd of 1.2 nM, a koff of 0.000407 s⁻¹ and a kon of 321000 M⁻¹ s⁻¹.

B3: binding was put at a Kd of 0.5 nM, the koff came out at 0.000787 s⁻¹ and the kon came to 1.46e+06 M⁻¹ s⁻¹.

Molecule B4 returned a Kd of 0.8 nM, a koff of 0.000333 s⁻¹ and a kon of 438000 M⁻¹ s⁻¹.

Another assay deals with human CD40 (human, UniProt P25942 21-277). Description: cell-based or functional assay.
Regarding B1, the “EC50 (nM), CD86 upregulation on human B cells with huMSLN-CHO cells” value (“EC50 (nM), CD86 upregulation” for short) came to 0.00375 nM.

Regarding B2, the “EC50 (nM), CD86 upregulation” value was 0.00776 nM.

Consider B3, for which the “EC50 (nM), CD86 upregulation” value turned out to be 0.00434 nM.

On to B4, for which the “EC50 (nM), CD86 upregulation” value came out at 0.00333 nM.

For the origin of these results see US20260109776A1 (Amgen, published 2026).
